Test results published in patent US20220332804A1 (CSL INNOVATION, published 2022).
Values belong to the binder of their own block, whether it stands above or below them.

Tests used:
human complement C2 [1] = biological target: T1, human complement C2 (human, UniProt P06681 21-752); test: SPR, mAb captured, C2 analyte, MHAs buffer, pH 5.8, steady state
T1 construct: Recombinant full-length human C2 with C-terminal 8x His tag, purified from Expi293F supernatant; also called human C2; huC2
T1 sequence: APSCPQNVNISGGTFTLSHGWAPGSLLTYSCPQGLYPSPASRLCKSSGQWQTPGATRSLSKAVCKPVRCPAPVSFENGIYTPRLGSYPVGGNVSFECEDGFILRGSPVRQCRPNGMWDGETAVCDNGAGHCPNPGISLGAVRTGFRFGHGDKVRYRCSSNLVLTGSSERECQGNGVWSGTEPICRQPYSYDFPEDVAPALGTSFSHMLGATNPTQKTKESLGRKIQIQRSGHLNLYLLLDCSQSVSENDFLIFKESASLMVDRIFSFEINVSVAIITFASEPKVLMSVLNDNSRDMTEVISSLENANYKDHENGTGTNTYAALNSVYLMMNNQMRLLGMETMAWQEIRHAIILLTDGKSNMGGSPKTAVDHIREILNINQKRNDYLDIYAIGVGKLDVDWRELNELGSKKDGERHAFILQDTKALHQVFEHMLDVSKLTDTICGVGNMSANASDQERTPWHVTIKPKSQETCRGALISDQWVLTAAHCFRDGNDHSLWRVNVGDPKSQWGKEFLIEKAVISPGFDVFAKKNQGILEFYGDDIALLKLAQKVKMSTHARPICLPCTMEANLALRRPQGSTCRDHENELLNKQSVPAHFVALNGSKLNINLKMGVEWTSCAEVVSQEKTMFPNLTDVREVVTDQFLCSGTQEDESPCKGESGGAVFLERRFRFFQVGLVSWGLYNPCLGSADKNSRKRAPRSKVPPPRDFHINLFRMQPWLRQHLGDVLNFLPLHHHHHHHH
Method: (§1) Surface plasmon resonance (SPR, Biacore) was used for all binding affinity analyses. In brief, goat anti-human IgG was directly immobilised onto the carboxymethyl dextran surface of CM5 sensorchips to approximately 12,000 RU using standard NHS/EDC chemistry at pH 5. The immobilised antibody surface was pre-conditioned with ten injections of polyclonal human IgG (Privigen 60 s) prepared at 1 μg/mL. Ligands (anti-C2 mAbs) were captured at the beginning of each cycle as described below. An adjacent spot or flow cell in which only Polyclonal IgG was capture was used as a reference surface. The goat anti-human IgG Fc antibody surface was regenerate in 100 mM H3PO4, injected for 45 seconds at the end of each cycle. Experiments were performed at 37° C. and the flow rate of each experiment was kept constant at 30 μL/min.
(§2) This buffer contains ammonium sulfate instead of sodium chloride.

human complement C2 [2] = biological target: T1, human complement C2; test: SPR, mAb captured, C2 analyte, HBS-EP, pH 6.0
Method: as §1
(§3) The pH dependent anti-C2 antibodies and their germlined versions were tested for their affinity to C2 at pH 7.3 (neutral pH) and pH 6.0 (early endosome pH) using the SPR methods described above in HBS-EP buffer.

cynomolgus monkey C2 [3] = biological target: T2, cynomolgus monkey C2 (cynomolgus monkey, UniProt G8F3W0 21-752); test: SPR, mAb captured, cyno C2 analyte, pH 7.3
T2 construct: also called cyno C2
T2 sequence: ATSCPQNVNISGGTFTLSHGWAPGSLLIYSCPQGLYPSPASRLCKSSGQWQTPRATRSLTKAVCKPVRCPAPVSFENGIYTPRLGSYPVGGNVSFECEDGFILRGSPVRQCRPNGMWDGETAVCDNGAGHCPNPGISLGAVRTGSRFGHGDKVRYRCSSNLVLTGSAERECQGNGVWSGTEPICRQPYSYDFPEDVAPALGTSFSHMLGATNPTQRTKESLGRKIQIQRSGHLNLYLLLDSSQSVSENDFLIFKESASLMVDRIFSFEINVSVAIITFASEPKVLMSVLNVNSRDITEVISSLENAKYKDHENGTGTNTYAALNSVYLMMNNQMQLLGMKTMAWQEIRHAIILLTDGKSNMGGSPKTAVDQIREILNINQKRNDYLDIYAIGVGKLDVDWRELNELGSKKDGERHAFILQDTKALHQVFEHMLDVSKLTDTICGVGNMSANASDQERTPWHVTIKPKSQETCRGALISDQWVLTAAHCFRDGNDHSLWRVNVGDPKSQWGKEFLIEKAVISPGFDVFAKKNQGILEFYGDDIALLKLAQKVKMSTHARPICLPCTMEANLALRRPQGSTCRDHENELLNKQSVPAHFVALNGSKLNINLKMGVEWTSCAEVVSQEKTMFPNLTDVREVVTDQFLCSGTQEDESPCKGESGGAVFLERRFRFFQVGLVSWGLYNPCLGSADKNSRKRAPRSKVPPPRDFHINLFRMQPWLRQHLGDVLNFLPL
Method: as §1
(§4) In addition to human C2, the pH dependent anti-C2 antibodies were also tested for their ability to bind to C2 from other mammalian species using the SPR methods described above in order to identify suitable surrogate species for in vivo testing. The antibodies were tested for binding at neutral pH against C2 from cynomolgus monkeys, mice, dogs, rabbits, rats, pigs, and sheep.

human complement C2 [4] = biological target: T1, human complement C2; test: SPR, mAb captured, C2 analyte, MHAs buffer, pH 7.3
Method: as §1, §2

cynomolgus monkey C2 [5] = biological target: T2, cynomolgus monkey C2; test: SPR, mAb captured, cyno C2 analyte, pH 6.0
Method: as §1, §4

human complement C2 [6] = biological target: T1, human complement C2; test: cell-based or functional assay
human complement C2 [7] = biological target: T1, human complement C2; test: SPR, mAb captured, C2 analyte, HBS-EP, pH 7.3
Method: as §1, §3

human complement C2 [8] = biological target: T1, human complement C2; test: SPR, mAb captured, C2 analyte, MHAs buffer, pH 6.0, steady state
Method: as §1, §2

cynomolgus monkey C2 [9] = biological target: T2, cynomolgus monkey C2; test: cell-based or functional assay
human complement C2 [10] = biological target: T1, human complement C2; test: cell-based or functional assay; remark: listed apart in the source
mouse C2 = biological target: T3, mouse C2 (mouse, UniProt P21180 19-760, limits assumed); test: SPR, mAb captured, mouse C2 analyte, pH 7.3
T3 sequence (looked up): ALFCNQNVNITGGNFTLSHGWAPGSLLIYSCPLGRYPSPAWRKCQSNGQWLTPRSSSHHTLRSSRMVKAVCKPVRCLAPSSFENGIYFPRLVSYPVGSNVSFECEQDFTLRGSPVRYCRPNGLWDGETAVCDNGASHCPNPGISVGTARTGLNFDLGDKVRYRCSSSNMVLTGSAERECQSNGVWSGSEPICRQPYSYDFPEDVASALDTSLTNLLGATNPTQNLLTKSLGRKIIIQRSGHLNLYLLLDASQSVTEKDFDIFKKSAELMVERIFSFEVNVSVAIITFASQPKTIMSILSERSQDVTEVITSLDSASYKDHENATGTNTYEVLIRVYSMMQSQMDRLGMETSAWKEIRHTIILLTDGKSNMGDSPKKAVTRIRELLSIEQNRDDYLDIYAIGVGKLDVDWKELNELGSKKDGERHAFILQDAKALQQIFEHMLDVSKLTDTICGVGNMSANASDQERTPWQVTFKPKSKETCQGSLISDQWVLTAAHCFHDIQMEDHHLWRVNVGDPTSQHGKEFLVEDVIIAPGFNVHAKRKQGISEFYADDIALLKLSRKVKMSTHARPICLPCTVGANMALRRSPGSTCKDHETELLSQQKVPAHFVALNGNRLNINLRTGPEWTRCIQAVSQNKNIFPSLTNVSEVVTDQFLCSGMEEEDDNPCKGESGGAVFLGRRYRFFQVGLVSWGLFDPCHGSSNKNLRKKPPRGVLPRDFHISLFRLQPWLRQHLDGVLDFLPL
Method: as §1, §4

- Kd (human complement C2 [1]): 4670 nM
- Kd (human complement C2 [2]): 148 nM
- Kd (cynomolgus monkey C2 [3]): 46.8 nM
- Kd (human complement C2 [4]): 233 nM
- Kd (cynomolgus monkey C2 [5]): 137 nM
- IC50, inhibition of human classical complement pathway (Wieslab assay) (human complement C2 [6]): 18.6 nM
- IC50, inhibition of human lectin complement pathway (Wieslab assay) (human complement C2 [6]): 7.69 nM
- Kd (human complement C2 [7]): 31 nM
- Kd (human complement C2 [8]): 2170 nM
- Kd (mouse C2): 885 nM
B1: RF16-214 (antibody, V domains shown)
VH: EVQLLESGGGLVQPGGSLRLSCAASGFTFSWYQMMWVRQAPGKGLEWVSRIYPSGGGTAYADSVKGRFTISRDNSKNTLYLQMNSLRAEDTAVYYCARDAGYGDNWGQGTLVTVSS
VL: QSALTQPPSVSVSPGQTASITCSGDKLGEKYASWYQQKAGQSPVMVIYQDRKRPSGIPERFSGSNSGNTATLTISGTQAMDEADYYCQAWDTRAVVFGGGTKLTVLG
- IC50, inhibition of cyno classical pathway (hemolysis assay) (cynomolgus monkey C2 [9]): 630 nM
- IC50, inhibition of human classical pathway (hemolysis assay) (human complement C2 [10]): 241 nM

- Kd (human complement C2 [1]): 5510 nM
- Kd (human complement C2 [2]): 114 nM
- Kd (cynomolgus monkey C2 [3]): 5.1 nM
- Kd (human complement C2 [4]): 44 nM
- Kd (cynomolgus monkey C2 [5]): 141 nM
- IC50, inhibition of human classical complement pathway (Wieslab assay) (human complement C2 [6]): 12.5 nM
- IC50, inhibition of human lectin complement pathway (Wieslab assay) (human complement C2 [6]): 5.6 nM
- Kd (human complement C2 [7]): 11.6 nM
- Kd (human complement C2 [8]): 2230 nM
- Kd (mouse C2): 160 nM
B2: RF16-226 (antibody)
heavy: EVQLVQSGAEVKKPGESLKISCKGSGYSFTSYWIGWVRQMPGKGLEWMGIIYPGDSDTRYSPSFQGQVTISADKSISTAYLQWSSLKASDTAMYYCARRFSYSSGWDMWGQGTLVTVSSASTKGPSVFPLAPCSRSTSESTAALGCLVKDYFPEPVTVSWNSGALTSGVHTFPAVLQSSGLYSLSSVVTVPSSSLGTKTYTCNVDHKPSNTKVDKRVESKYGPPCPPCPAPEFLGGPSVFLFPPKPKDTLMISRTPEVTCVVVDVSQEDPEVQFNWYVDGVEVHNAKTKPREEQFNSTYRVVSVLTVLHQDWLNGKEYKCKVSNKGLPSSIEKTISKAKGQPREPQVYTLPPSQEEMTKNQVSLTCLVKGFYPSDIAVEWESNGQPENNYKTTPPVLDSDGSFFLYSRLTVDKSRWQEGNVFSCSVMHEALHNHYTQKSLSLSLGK
light: SYELTQPPSVSVSPGQTARITCSGDALTSKYVAWYQQKSGLAPLLVIYEDTRRPSGIPAKFSGSSSGSVATLTISGAHGDDEADYYCYSTDASGHQRVFGGGTKLTVLSQPKAAPSVTLFPPSSEELQANKATLVCLISDFYPGAVTVAWKADGSPVKAGVETTKPSKQSNNKYAASSYLSLTPEQWKSHRSYSCQVTHEGSTVEKTVAPTECS
- IC50, inhibition of cyno classical pathway (hemolysis assay), mean of three experiments (cynomolgus monkey C2 [9]): 124 nM
- IC50, inhibition of human classical pathway (hemolysis assay) (human complement C2 [10]): 284 nM
